Test results reported in the DeepSol protein solubility set.

test: soluble on expression in E. coli; label from the status in PepcDB or PDB records

Row | Sequence | soluble on expression in E. coli
1 | QEARTGNDIAQLPAISVTGREISDLTEGTNAYTTEAMSTATGLTLSPRETPQSVSVVTRQQIEDQGLTDTGAILATAPGISVTRSDSNRYSFSARGFTIDNFQFDGLVSPILSQWNYGSTDMDAAIYDHVEIVRGATGLMTGSGNPSAAVNFVRKRPLREFAATFNASVGSWDYVRGDADISVPITEDGRIRSRLVAAYSQGDSYVHFLDTRRRTFYGVVSADLTPDTVLTTSVEYQHNHSNGFGSGFPLFYSDGSRTDFNRSVANNAPWARQDTEATTYFVDLTHRFTNDWKLRAAYSHTDGRYLMKHVYRGGYPDRHTGIIAAPPAFSNYDGNLDRDDIHFSLSAPFEAFGLRHEVALGWMSIDNHSDIQRYAMVGPAPAIGSFFDWRRAGSHHHHHHHIQEPSWADTLSPADDVRTKQTGAYLVGRFALAEPLHLIVGDRWSDWKTKQMYFGSRREYRIKNQFTPYAGLTYDINDTYTAYASYTEIFQPQNARDTSGGILPPIKSKSYELGLKAAYLEGRLNTSAALFQTRQDNLAQVIPGSSIPGFPNMQASRAASGAKVEGIDLEASGQILPDWNIGASYTHFTTKDASGNPINTNHPRSLFKLYTTYRLPGALHRLTVGGGVDWQSRMYQAAASPRGNVEVEQDSYALVSLMARFDFNKKLSATLNVNNLFDKKYYDQIGFYSQGWWGAPRNVMLNLRAQY | soluble
2 | MGSDKIHHHHHHMERHNAIPIYDAELPLTSGVIPLVAGLTMPGCLRDASPDAWGRRVILNKRFGKTALQIDPGSIDELSYLIESGSDRIGALDFQRSPTEYIPRLASGAPLEELIKAAELVEKGVPLTPELAQALQHGTSIGGARPKALVQSDNHKFIAKFSTSTDLYSVVKAEFIAMKLALMAGLHVAPVNLLQVAGKDVLMVERFDRVAAPAGWQRKGIVSALTMLQLDEMMARYASYHDLANLVRQRFMRAPSTLRELFSRLAFNILIGNTDDHARNHAAFWDGRMLQLTPAYDICPQSRTGRTASQAMQISDGQNSSQITTCLKAAPHFLLNEAEAGLIIEGQIRCIEENWPTICEEADLSEIDRNLMWRNQVLNPFAFEGLEGSSLERLAKKYR | not soluble
3 | MTIGIDKINFYVPKYYVDMAKLAEARQVDPNKFLIGIGQTEMAVSPVNQDIVSMGANAAKDIITDEDKKKIGMVIVATESAVDAAKAAAVQIHNLLGIQPFARCFEMKEACYAATPAIQLAKDYLATRPNEKVLVIATDTARYGLNSGGEPTQGAGAVAMVIAHNPSILALNEDAVAYTEDVYDFWRPTGHKYPLVDGALSKDAYIRSFQQSWNEYAKRQGKSLADFASLCFHVPFTKMGKKALESIIDNADETTQERLRSGYEDAVDYNRYVGNIYTGSLYLSLISLLENRDLQAGETIGLFSYGSGSVVEFYSATLVEGYKDHLDQAAHKALLNNRTEVSVDAYETFFKRFDDVEFDEEQDAVHEDRHIFYLSNIENNVREYHRPE | soluble
4 | MSLEIKFLSLCILAGVLFVSQVNASANNGKDDVKYAALTQKDLDALPVEKRASVLDELGFIHEYGLSVPMNRERALQYYKQACELGGNYGCYNVKYAYQYGDGVAKDSAQANKYAKKMNLDNLLIEQEYIDKFSQEIYMAKALADTDKSQRAAFISILIHALNNRPESDALFFSRIGFNQEKTFRLATLWSQDGDPQMDYQMGRLTLNDFSGRYADEPYQARPASLKWFRAAAEKGVVEAQSLLGGIYSGGEGDEWGIKPDIQEAQKWYGQAAKQGDSDAQIALGKIYYSGATGRTDYAKALALFTQVENDGTNSRSTMPLSWMYYNGLGTAPDCDKAWSYYKKASRYVGKKVEEGHHHHHH | not soluble
5 | MGHHHHHHSHMQHFKRTGTGTPVKRVRKAIEKSETTSEHTCQLCGGWFDTKIGLSNHVRGHLKRLGKTKWDAHKSPICVLNEMMQNEEKYEKILKALNSRRIIPRPFVAQKLASSDDFISQNVIPLEAYRNGLKTEALSVSASEEEGLNFLNEYDETKPELPSGKKNQSLTLIELLKNKRMGEERNSAISPQKIHNQTARKRFVQKCVLPLNEDSPLMYQPQKMDLTMHSALDCKQKKSRSRSGSKKKMLTLPHGADEVYILRCRFCGLVFRGPLSVQEDWIKHLQRHIVNANLPRTGAGMVEVTSLLKKPASITETSFSLLMAEAAS | not soluble
6 | MKSMVEMQREVDEYIGQFKTGYFSPLANLARLTEEVGELAREINHTYGEKKKKDSEEANTIKAELGDNLFVLLCLANSMGIDMTESFNETMEKFNTRDKNRFERKLEHHHHHH | soluble
7 | MSSCKSHVYVSAFLLCMLIPISQQVLNEHNQKLEWIVGKWRSEFSGKIFWPTVPTMTFGEELVINEAPIAKSANVQFLNFSARAWSHSTKDHFHDEWGFLTVDPVGNATLMTTGNNGFTTYETGTVSPNKLVLTLKDIGRISFSRDLPVEDLRRTFIRHDDRYMEQVIEMRTATHPKVGYLEHTRVVYTKLK | not soluble
8 | MRGSHHHHHHTDPALRANITPFPTLSPATIDAINVIGQWLAQDDFSGEVPYQADCVILAGNAVMPTIDAACKIARDQQIPLLISGGIGHSTTFLYSAIAQHPHYNTIRTTGRAEATILADIAHQFWHIPHEKIWIEDQSTNCGENARFSIALLNQAVERVHTAIVVQDPTMQRRTMATFRRMTGDNPDAPRWLSYPGFVPQLGNNADSVIFINQLQGLWPVERYLSLLTGELPRLRDDSDGYGPRGRDFIVHVDFPAEVIHAWQTLKHDAVLIEAMESRSLRGLCGR | soluble
9 | MNRTLYTVLFHLGLPLVALRLWLRARKAPAYRQRIGERFASGLPAMQRDGIWVHAVSVGESIAAAPMIRALLVQYPQLPITVTCMTPTGSERIKALFANEPRIQYCYLPYDLPWAAGRFLDHVQPQLGIIMETELWPNHIHQCAKRAIPVVLANARLSERSARGYARFARLTQPMLAEMAWFAVQTEVEAQRFRDLGARAECVVVTGSIKFDLNIDPQLLERAAQLREQWQATQRPVWIAASTHAGEDESVLSAHRTLLASHPDALLILVPRHPERFDSVHALCQQQGFKTVRRSSAQAVTPDVAVLMGDTMGELLFLYALVDIAFVGGSLVPNGGHNLLEPAALAKPVLSGPHLFNFLEIAAMLRTAGALQEVSDATALATAVQRLIDQPQQARSMADAGLAVMKANQGALQRLLDGIERLMAKRRVAEDAERPERHAHAERRHDSAAALEHHHHHH | not soluble
10 | MGSDKIHHHHHHMNSLGAVIKEIRKNRKLTQKMLSEDICSQSVLSRIENNEELPNVLVMQQLCDRLGVTVDQIMRYKSGDVHVVTYSFEKMAEYFRHKKYQLLLNYLKENRIEEQLYLDTDWQKYYYYLGSCELFVLNDYEKAIASLRKGLSFTYKADKLNVSDLEIQLISCLGATYGYMGNRVEAERFLSLSIHYFNQLPNERSNAELTKIFFNYADFLFKNYTEKDAEIYVDQGITWARKKNSYYYLSELLNLKYLVLMRKNKHEEAERYLNLAQQMKNVESGNL | not soluble
11 | MGSDKIHHHHHHMSAKKNEIRSKLALLQLATELGSISKACGIMGYSRDSYYRFKKQYETAGERGLKNLSRRKPALKNRVSQAVEDQVIEIALDYPNYGQAKVAELLTARGCAISASGVRTIWVRHNLETKKNRLLALHSKLKQDNNLAPSDQVRIEKLYQLDSNDPIFECLYPGDICVQDTFDLGVISPLGQLYQHTFVDGYSQFAIAVIMPERDSASAAEFLEQTVLPWYATAQGLNINTILTDRGSEFFGKKSQQFSDVLSAHNINHIQMRAYNGPVVNGLAARFQDLAYHEFYEPFLKENKAGSLLDLNQQLANWLYDYNHSHAISGRYTLGKTAAEVLKLTKHLSEASSQCS | not soluble
12 | MGSDKIHHHHHHMMKRFWFFLESYVFVWTNHEAVLLYDSLSGKGVTWKLTDPVRTIVMELMKKENLYCMELTEDDLNVPEVTEFVSEIRRNFIGDLYSQEEFRQKPLVIVPEVSVNENLENDVETMNNLELFGQKIVNNLRVVTMRLTGECSINCRYCQTVDKQIVWCRKQDNRLSYNEICRLLEQLKHTPVTLINFVGGNVLSYPFLDELLNELKKHSFGKCFYLYYKQSVDYEQIRAKLLNDPSVSIKFLIDYPVNEYAISACVALPNERVEYCFAVTSEEEFQEVSRIIDVYKLKANIYPFYTIDNLDFFEKYVFQTLEDVMALCRTKKDIFAHQLVNTHFFGTLYIDCDGKVYPNFNSKSIGTIDGYVKDWVFQEMKQGKMWHWTRDSLPACKECLYKYLCPSPSNYELVIGKPNLCHVKPWKC | not soluble
13 | MKYSSIFSMLSFFILFACNETAVYGSDENIIFMRYVEKLHLDKYSVKNTVKTETMAIQLAEIYVRYRYGERIAEEEKPYLITELPDSWVVEGAKLPYEVAGGVFIIEINKKNGCVLNFLHSKLEHHHHHH | not soluble
14 | GNDEIGELALAFNNLSKRVQEAQANTESEKRRLDSVITHMSDGIIATDRRGRIRIVNDMALKMLGMAKEDIIGYYMLSVLSLEDEFKLEEIQENNDSFLLDLNEEEGLIARVNFSTIVQETGFVTGYIAVLHD | not soluble
15 | MSLGGDRFYDLISAVHKSIRGSAPDAALYWYARIITAGGDPLYVARRLLAIASEDIGNADPRAMQVALSAWDCFTRVGAAEGERAIAQAIVYLAVAPKSNAVYQAFNAAKALAKQAPDYDVPRHLTNAPTQLLKELGNHAEYRYAHDEPNAYAAGENYFPEPLKDTRFYFPGARGMEIKIKEKLDWLRNLDQQSENIREGHHHHHH | soluble
16 | MGSSHHHHHHSSGLVPRGSHMAEFRFIKTSLDGAIIIEPEVYTDERGYFMETFNEAIFQENGLEVRFVQDNESMSVRGVLRGLHFQREKPQGKLVRVIRGEIFDVAVDLRKNSDTYGEWTGVRLSDENRREFFIPEGFAHGFLALSDECIVNYKCTELYHPEYDSGIPWDDPDIGIDWPLEMVDDLIISEKDRNWKPLRENPVYL | soluble
17 | MGSDKIHHHHHHMRIVLGVSSGIAIYKAVDLASKLRKEGHELHVVMTPDATRMISPVVFSAVGNCSVYHDWMDVRNGWIPHTEISRTADVLVVAPATANTISKIANGIADNLLTLVALAFDKDAKILVPTMNYRMYSNKLFQENLEKLKNNGWFVVEPEEGHLACGEVGKGRYPENEKIVEAVHLLTFPKKLAGKKVLITAGPTRERIDAVRFITNASSGKMGYALATVAKRMGARVSLVSGPTSLKPPYYVDEFVKVESAEEMYEEVMKRFEDTDIVIMNAAVGDYRPKKVFEGKLKKTENDLVLHLERTKDILKELGQRKSNQILVGFAAEVENFEENAVKKLREKNLDLLVLNDARKAFSSDRVEVYIYGRDGFIKRIDEDDKIRVACGILDVVSNLAGGSPS | not soluble
18 | MHGKDPFSDFREFINTMESRVQELGKAYGVEHLAGPQGFAVRYLFENQDKEIFIKDIEKKLSISKSVASNLVKRMEKNGFVELVTSDKDKRYKYVHLTDLGKKKAQDVGHFREAIHGQLLDGISKEDAETAFRVFHQIRKNLEKNKELEHHHHHH | soluble
19 | GPGSMKLLKFVNSDAPHTLADVQLRNQRLWFPCRHGNAAVAAKSWTLTAASPASVSGGYWLLDDDSQPICEITDVLLALPETAANAAGSSGTFAPRGVTDKDVDGIDFRSKMGRQMERERATYGATSKTATKSARTMMNAEEMTEKKNERMKREREAVAEAIEDNDASVMEPRKKERKHSKK | soluble
20 | MATENPQTWALWLILSEMASDMQEDKKVAKILVLGPPKAGKTTLCTFLADFMEDGDTLKKGEDSGERERKFEFEFTSVYRPTKGVRIQEFETHEFFTEQEQNELGGTRRLEDSEIQLWDVSGDKKYEDCWPAIKENAEGVILVVNPEEHKGSDLQQWFYEFVEKENIDLSCVMVILNEQGAKKTNHEQISGFEILPKLRGVHHVAHHFGSEAMQVKMEVNSFMASVLKMDQRQMGSGVDHGLGYADEQEDDF | not soluble
